Values of other authors as cited in PMC3125604.

Target: Prolactin receptor (site 2) (Homo sapiens) (UniProt P16471)
Test: surface plasmon resonance

Sequence of UniProt P16471 (P16471 25-234): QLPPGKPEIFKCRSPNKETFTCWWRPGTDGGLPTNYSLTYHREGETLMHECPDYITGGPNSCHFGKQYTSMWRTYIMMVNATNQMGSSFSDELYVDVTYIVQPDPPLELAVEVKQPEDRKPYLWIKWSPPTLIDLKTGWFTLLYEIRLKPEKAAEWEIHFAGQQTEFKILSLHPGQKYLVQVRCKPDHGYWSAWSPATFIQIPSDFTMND

Kd: 33 µM
Substance: Prolactin (hPRL) (from UniProt P01236)
